Experimental findings from patent US20170218047A1, “NOVEL FUSION PARTNERS FOR THE PURPOSE OF CRYSTALLIZING G-PROTEIN COUPLED RECEPTORS” (THE SCRIPS RESEARCH INSTITUTE, priority 2011, published 2017) are described below.

The nature of data set [1]: Fluorescence (CPM) thermostability assay of β2AR constructs. In kind it is physicochemical. The settings on record: 100 μM timolol; for thermostability: more stable than β2AR-T4L: increase relative to β2AR-T4L; for thermostability: less stable relative to β2AR-T4L: decrease relative to β2AR-T4L. The protocol:
N-[4-(7-diethylamino-4-methyl-3-coumarinyl)phenyl]maleimide (CPM) dye was purchased from Invitrogen and dissolved in DMSO (Sigma) at 4 mg/mL as the stock solution for future use. The stock solution was kept at −80° C. and was diluted 1:40 in dye dilution solution (10 mM buffer, 500 mM NaCl, 10% glycerol, 0.025% DDM and 0.005% CHS) before use. The thermal denaturation assay was performed with total volume of 200 μL sample in a quartz fluorometer cuvette (Starna Cells, Inc., Atascadero, Calif.). Receptor (4 μg) was diluted in the appropriate buffer solution to a final volume of 200 μL, 5 μL of the diluted dye was added to the protein solution and incubated for 30 min at 4° C. The mixed solution was transferred to the cuvette and the data were collected by a Cary Eclipse spectrofluorometer (Varian, USA) with a temperature ramping rate at 2° C./min. The excitation wavelength was 387 nm and the emission wavelength was 463 nm. All assays were performed over a temperature range starting from 20° C. and 95° C. The stability data were processed with GraphPad Prism program (GraphPad Prism, Graphpad Software, San Diego, Calif., USA). In order to determine the melting temperature (Tm), a Boltzmann sigmoidal equation was used to fit to the data.
The thermostability of the different β2AR constructs was then evaluated. Assays were carried out in the presence of 100 μM timolol to maintain receptor stability during heating. […] We thus selected β2AR-BRIL and β2AR rubredoxin for further crystallization studies.

A short description of data set [2]: Size exclusion chromatography (SEC) of purified S1P1-fusion partner proteins. Format: physicochemical. The settings on record: presence or absence of ligand. The protocol: S1P1-fusion partner proteins (“S1P1 fusion receptors”) were purified from membranes by dodecyl-maltoside (DDM) extraction followed by immobilized metal affinity chromatography (IMAC) on Talon resin (Clontech) as detailed below. Frozen cellular membranes were thawed by adding room temperature lysis buffer to a total volume of 25 mL. The S1P1 receptor antagonist W146 was added to a final concentration of 125 μM. The mixture was allowed to incubate at room temperature for 1 hour to ensure complete saturation of the receptor with ligand followed by addition of iodoacetamide to a concentration of 1 mg/mL and an additional 1 hour incubation at 4° C. Receptor solubilization was initiated by addition of detergent and cholesteryl hemisuccinate (CHS) to achieve a final concentration of 0.5% DDM 0.1% CHS. The solubilization buffer consisted of the following mixture: 50 mM Hepes pH 7.5; 800 mM NaCl; 30 mM Imidazole; 0.1% DDM 0.02% CHS; 125 μM W146. […]
Eluted proteins were analyzed by size-exclusion chromatography (SEC) followed by SDS-PAGE. […] SEC fractions corresponding to S1P1-fusion partner proteins were evaluated separated by SDS-PAGE on a 10% gel and stained, confirming that each S1P1-fusion partner protein could be purified to near-homogeneity (data not shown).

Take “β2AR xylanase: β2-adrenergic receptor fused with xylanase, SEQ ID NO: 12”: the “thermostability: more stable than β2AR-T4L” value in data set [1] is “about 3 °C”.
On the same count and under the same terms, the result for “132AR-rubredoxin: β2-adrenergic receptor fused with rubredoxin, SEQ ID NO: 11” reads “approximately 8 °C”; that for “β2AR-BRIL: β2-adrenergic receptor with cytochrome b562 RIL replacing the third intracellular loop, SEQ ID NO: 10”, “approximately 8 °C”.
Turning to “β2AR-flavodoxin: β2-adrenergic receptor fused with flavodoxin in place of T4L, SEQ ID NO: 13”, the “thermostability: less stable relative to β2AR-T4L” value in data set [1] is “about 9 °C”.
The same measure, in the same setting: the result for “β2AR-C-term T4L: β2-adrenergic receptor fused with T4 lysozyme C-terminal fragment, SEQ ID NO: 9” reads approximately 4 °C.
“S1P1-Bril: S1P1 receptor with cytochrome b562 RIL replacing part of ICL3, SEQ ID NO: 2”: the “stability by SEC (in words)” value in data set [2] is given as “stable in the presence or absence of ligand”.
